Molecular target: T1, CFP-AR-YFP (full length AR with cyan fluorescent protein and yellow fluorescent protein fused to either end) (UniProt P10275 1-920)
T1 construct: Reporter stably expressed in GT1-7 CARY cells; GT1-7 CARY lysates may also contain endogenous mouse AR; also called CARY; C-AR-Y; not shown: cyan fluorescent protein (CFP); yellow fluorescent protein (YFP)
T1 sequence (looked up): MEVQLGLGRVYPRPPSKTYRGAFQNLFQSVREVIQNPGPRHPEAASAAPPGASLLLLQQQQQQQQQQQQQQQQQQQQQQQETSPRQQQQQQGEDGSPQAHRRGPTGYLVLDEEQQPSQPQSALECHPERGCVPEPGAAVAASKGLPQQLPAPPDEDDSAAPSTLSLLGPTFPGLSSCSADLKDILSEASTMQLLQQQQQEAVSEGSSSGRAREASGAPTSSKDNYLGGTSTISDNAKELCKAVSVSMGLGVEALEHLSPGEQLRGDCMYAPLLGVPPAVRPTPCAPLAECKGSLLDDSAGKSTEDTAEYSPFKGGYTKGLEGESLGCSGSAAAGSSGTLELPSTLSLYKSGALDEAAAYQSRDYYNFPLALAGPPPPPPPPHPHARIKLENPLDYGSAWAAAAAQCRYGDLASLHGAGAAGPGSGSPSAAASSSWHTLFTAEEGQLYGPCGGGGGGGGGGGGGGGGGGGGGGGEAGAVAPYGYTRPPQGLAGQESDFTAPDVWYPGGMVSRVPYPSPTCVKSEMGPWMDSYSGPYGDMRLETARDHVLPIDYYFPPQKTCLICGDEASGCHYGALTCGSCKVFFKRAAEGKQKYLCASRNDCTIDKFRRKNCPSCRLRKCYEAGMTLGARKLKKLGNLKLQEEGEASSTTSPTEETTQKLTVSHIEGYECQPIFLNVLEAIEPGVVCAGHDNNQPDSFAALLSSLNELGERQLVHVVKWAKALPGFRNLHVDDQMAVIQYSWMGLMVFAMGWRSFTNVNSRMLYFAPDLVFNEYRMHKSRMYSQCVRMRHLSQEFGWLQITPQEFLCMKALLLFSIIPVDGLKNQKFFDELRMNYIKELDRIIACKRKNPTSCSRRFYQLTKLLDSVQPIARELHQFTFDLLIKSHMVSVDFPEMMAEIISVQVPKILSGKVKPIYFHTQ
Experiment: co-immunoprecipitation from GT1-7 CARY cell lysates, Western blot

B1: FOXM1 (other, mouse, UniProt O08696 1-760, looked up)
chain: MRTSPRRPLILKRRRLPLPVQNAPSETSEEEAKRSPAQPEPAPAQASQEVAESSSCKFPAGIKIINHPTTPNTQVVAIPSNADIQSIITALTAKGKESGTSGPNRFILISSGGPSSHPSQPQAHSSRDSKRAEVITETLGPKPAAKGVPVPKPPGAPPRQRQESYAGGEAAGCTLDNSLTNIQWLGKMSSDGLGPCSVKQELEEKENCHLEQNRVKVEEPSGVSTSWQDSVSERPPYSYMAMIQFAINSTERKRMTLKDIYTWIEDHFPYFKHIAKPGWKNSIRHNLSLHDMFVRETSANGKVSFWTIHPSANRHLTLDQVFKPLEPGSPQSPEHLESQQKRPNPELHRNVTIKTEIPLGARRKMKPLLPRVSSYLEPIQFPVNQSLVLQPSVKVPFRLAASLMSSELARHSKRVRIAPKVLLSSEGIAPLPATEPPKEEKPLLGGEGLLPLLPIQSIKEEEMQPEEDIAHLERPIKVESPPLEEWPSPCASLKEELSNSWEDSSCSPTPKPKKSYCGLKSPTRCVSEMLVTKRREKREVSRSRRKQHLQPPCLDEPDLFFPEDSSTFRPAVELLAESSEPAPHLSCPQEEGGPFKTPIKETLPVSSTPSKSVLSRDPESWRLTPPAKVGGLDFSPVRTPQGAFGLLPDSLGLMELNTTPLKSGPLFDSPRELLNSEPFDLASDPFGSPPPPHVEGPKPGSPELQIPSLSANRSLTEGLVLDTMNDSLSKILLDISFPGLEEDPLGPDNINWSQFIPELR
notes: also called Forkhead Box Protein M1
  binding result: no binding
